Patent publication US20260071199A1 (JENTHERA THERAPEUTICS, published 2026)

B1: modified nuclease L1 (other)
chain: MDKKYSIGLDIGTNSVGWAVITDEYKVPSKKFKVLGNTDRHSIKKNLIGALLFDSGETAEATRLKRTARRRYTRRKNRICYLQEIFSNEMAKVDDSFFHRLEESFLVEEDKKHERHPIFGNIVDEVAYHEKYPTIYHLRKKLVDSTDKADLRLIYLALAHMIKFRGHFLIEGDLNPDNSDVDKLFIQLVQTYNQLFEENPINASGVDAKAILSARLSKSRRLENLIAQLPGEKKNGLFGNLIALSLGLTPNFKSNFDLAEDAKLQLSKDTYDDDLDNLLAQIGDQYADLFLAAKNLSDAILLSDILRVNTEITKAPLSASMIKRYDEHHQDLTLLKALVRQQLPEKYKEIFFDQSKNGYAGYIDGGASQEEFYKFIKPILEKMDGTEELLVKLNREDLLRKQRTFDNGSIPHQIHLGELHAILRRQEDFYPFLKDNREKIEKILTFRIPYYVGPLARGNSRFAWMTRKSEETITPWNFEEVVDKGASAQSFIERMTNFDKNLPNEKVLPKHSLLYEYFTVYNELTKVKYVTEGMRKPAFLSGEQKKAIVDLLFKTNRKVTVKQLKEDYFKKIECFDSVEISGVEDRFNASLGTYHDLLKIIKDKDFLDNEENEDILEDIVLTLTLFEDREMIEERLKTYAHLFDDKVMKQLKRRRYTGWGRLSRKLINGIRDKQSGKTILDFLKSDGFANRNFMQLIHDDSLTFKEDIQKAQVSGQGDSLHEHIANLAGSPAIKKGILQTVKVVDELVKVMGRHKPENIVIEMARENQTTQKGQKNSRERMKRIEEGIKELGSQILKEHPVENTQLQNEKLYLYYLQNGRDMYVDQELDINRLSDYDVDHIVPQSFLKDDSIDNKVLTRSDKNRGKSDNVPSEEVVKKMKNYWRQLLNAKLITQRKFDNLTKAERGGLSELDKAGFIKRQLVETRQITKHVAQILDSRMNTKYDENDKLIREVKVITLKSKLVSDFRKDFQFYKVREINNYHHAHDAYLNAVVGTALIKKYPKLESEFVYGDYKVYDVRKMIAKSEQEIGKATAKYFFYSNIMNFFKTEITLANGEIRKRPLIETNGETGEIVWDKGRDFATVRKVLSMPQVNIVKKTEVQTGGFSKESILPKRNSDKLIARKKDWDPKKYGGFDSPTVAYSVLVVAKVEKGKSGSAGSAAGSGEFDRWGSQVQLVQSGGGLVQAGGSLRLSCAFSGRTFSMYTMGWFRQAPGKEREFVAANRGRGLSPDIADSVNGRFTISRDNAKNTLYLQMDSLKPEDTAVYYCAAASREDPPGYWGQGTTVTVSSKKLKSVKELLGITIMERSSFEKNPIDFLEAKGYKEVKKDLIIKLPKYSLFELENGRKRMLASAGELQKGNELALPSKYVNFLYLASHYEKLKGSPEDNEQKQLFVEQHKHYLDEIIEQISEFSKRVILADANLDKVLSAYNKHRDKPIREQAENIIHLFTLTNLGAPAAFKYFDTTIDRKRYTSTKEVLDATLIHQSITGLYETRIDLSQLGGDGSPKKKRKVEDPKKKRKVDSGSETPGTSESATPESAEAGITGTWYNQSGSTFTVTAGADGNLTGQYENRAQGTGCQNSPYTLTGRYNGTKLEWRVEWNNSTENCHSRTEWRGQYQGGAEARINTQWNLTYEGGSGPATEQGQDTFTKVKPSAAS
B2: modified nuclease Zero (other)
chain: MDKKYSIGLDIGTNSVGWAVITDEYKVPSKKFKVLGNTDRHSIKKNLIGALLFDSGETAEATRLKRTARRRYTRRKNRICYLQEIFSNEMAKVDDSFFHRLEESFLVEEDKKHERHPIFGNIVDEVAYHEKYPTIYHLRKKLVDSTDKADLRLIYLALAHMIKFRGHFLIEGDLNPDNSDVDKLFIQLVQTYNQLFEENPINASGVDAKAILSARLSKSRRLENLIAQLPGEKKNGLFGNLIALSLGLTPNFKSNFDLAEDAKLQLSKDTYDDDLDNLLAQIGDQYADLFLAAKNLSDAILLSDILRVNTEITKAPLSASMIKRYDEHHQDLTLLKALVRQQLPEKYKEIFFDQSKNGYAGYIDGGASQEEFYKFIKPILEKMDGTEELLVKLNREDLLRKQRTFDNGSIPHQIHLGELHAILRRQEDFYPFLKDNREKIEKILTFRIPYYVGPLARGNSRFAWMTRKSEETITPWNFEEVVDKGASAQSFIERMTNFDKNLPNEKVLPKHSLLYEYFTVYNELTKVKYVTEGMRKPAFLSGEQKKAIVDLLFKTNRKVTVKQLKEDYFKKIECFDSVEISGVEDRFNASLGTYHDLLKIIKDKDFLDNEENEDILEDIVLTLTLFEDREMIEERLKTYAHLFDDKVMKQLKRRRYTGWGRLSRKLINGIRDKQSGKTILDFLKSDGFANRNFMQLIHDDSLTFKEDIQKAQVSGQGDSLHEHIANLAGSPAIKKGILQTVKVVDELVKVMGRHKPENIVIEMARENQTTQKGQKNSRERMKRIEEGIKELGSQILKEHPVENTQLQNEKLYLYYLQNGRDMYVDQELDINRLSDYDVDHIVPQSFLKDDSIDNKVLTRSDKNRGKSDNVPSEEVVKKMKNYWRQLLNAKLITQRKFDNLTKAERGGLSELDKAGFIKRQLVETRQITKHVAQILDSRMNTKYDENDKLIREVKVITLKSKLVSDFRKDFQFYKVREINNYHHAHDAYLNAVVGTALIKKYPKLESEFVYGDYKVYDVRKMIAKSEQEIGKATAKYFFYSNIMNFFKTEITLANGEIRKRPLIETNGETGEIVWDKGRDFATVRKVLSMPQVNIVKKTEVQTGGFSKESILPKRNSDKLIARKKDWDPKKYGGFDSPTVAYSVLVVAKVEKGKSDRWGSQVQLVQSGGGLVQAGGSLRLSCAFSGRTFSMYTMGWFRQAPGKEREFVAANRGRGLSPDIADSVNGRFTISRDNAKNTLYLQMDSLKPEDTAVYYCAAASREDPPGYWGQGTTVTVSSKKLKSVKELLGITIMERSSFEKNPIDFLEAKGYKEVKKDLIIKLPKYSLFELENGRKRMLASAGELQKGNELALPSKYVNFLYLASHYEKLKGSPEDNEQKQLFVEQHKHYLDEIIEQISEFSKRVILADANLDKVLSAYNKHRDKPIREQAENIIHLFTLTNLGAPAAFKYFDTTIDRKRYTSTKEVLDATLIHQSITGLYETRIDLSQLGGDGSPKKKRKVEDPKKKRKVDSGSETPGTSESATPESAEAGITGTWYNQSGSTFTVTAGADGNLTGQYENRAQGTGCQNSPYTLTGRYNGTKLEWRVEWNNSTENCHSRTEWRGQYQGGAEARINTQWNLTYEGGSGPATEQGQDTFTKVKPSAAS
B3: modified nuclease L2 (other)
chain: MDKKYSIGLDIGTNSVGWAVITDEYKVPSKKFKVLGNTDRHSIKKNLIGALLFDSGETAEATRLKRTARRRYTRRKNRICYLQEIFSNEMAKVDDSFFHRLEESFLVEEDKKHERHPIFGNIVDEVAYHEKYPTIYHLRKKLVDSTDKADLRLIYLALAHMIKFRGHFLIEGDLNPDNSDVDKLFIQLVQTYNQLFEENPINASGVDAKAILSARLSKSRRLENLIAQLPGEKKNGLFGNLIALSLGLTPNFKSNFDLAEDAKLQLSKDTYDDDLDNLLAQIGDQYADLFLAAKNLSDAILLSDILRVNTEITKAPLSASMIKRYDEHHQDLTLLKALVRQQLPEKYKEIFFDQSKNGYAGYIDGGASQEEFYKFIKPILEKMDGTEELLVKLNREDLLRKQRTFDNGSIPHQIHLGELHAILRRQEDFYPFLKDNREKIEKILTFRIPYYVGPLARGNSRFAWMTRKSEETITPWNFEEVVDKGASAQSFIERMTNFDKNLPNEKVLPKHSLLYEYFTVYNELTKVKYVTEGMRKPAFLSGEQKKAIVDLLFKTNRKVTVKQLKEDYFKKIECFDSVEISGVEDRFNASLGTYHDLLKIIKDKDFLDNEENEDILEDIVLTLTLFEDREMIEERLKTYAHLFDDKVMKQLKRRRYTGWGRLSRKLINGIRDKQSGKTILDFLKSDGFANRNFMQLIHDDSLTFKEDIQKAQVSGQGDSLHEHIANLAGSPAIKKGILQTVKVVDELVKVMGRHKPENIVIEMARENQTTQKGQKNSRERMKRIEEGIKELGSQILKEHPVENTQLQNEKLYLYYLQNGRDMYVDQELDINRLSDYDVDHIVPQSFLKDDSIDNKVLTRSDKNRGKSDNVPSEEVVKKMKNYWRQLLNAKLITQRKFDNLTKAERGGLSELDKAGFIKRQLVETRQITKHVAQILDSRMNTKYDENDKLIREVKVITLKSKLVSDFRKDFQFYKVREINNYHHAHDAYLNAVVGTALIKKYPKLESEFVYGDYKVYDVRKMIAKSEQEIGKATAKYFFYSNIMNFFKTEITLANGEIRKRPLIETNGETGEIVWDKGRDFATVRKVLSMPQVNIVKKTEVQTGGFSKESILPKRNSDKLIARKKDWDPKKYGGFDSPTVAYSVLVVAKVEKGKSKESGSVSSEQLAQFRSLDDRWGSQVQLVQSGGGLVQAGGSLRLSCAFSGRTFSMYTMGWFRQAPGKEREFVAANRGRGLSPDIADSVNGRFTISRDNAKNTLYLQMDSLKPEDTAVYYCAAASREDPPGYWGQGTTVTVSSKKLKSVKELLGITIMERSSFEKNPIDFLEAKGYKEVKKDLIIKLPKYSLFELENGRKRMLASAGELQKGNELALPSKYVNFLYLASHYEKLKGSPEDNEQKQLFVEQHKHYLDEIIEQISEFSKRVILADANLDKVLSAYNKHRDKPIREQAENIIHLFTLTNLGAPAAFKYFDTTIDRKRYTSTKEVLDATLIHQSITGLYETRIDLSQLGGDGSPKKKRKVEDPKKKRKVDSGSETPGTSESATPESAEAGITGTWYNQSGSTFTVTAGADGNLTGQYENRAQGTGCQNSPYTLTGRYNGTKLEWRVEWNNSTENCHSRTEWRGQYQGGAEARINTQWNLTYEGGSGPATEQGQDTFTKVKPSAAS

Biological target: T1, CD4 on CD4+ T cells (Jurkat CD4+ T cells; human primary CD4+ T cells) (human, UniProt P01730 26-458)
T1 construct: whole, on cells; also called CD4 receptor
Assay: flow cytometry, TAMRA-labelled nuclease, 1 h on Jurkat CD4+ T cells

Binder | delivery (percent of cells TAMRA-positive)
B1 | > 99%
B2 | > 99%
B3 | > 99%
